T1: Manduca sexta V-ATPase subunit H (Manduca sexta (endogenous in midgut), UniProt Q9U5N0 1-475)
T1 construct: V-type proton ATPase subunit H, Manduca sexta; source: purified from M. sexta midgut, as part of the V-ATPase holoenzyme
T1 sequence (looked up): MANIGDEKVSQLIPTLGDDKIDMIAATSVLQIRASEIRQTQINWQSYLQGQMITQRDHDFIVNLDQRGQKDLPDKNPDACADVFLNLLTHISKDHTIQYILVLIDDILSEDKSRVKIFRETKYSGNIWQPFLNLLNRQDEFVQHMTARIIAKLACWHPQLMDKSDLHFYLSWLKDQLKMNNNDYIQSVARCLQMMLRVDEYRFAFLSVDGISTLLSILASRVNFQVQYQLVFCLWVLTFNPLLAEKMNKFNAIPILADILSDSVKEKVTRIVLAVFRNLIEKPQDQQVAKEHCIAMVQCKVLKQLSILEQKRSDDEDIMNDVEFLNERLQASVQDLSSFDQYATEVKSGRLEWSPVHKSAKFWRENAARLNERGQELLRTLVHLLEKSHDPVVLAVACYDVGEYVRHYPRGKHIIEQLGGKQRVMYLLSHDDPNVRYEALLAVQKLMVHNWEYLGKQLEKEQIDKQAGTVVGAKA

B1: Manduca sexta V-ATPase subunit G (natural protein, Manduca sexta (endogenous in midgut), UniProt Q25532 1-117, looked up)
chain: MASQTHGIQQLLAAEKRAAEKVSEARKRKAKRLKQAKEEAQDEVEKYRQERERQFKEFEAKHMGTREGVAAKIDAETRIKIDEMNKMVQTQKEAVIKDVLNLVYDIKPELHINYRVV
notes: V-type proton ATPase subunit G, Manduca sexta; Three copies in the holoenzyme (stator filaments S1, S2, S3); also called part of the EG stator filaments S1-S3; source: purified from M. sexta midgut, as part of the V-ATPase holoenzyme
B2: Manduca sexta V-ATPase subunit E (natural protein, Manduca sexta (endogenous in midgut), UniProt P31402 1-226, looked up)
chain: MALSDADVQKQIKHMMAFIEQEANEKAEEIDAKAEEEFNIEKGRLVQQQRLKIMEYYEKKEKQVELQKKIQSSNMLNQARLKVLKVREDHVRNVLDEARKRLAEVPKDIKLYSDLLVTLIVQALFQLVEPTVTLRVRQADKALVESLLGRAQQDYKAKIKKDVVLKIDNENFLPPDTCGGIELIAAKGRIKISNTLESRLELIAQQLLPEIRNALFGRNPNRKFTD
notes: V-type proton ATPase subunit E, Manduca sexta; Three copies in the holoenzyme (stator filaments S1, S2, S3); also called part of the EG stator filaments S1-S3; source: purified from M. sexta midgut, as part of the V-ATPase holoenzyme
B3: Manduca sexta V-ATPase subunit D (natural protein)
chain: not shown
notes: V-type proton ATPase subunit D, Manduca sexta; also called rotor axle; central axle; source: purified from M. sexta midgut, as part of the V-ATPase holoenzyme

What was measured:
Test in all cases: cryo-EM structure; M. sexta V-ATPase holoenzyme purified from tissue, in C12E10; 9.4 Å reconstruction (gold standard FSC 0.143); homology models of the subunits flexibly fitted by MDFF; side chains not resolved
Conditions in all cases: both partners purified
[1] = biological target: B2
[2] = biological target: T1, Manduca sexta V-ATPase subunit H
[3] = biological target: T2, Manduca sexta V-ATPase subunit C (Manduca sexta (endogenous in midgut), UniProt Q9U5N1 1-385)
T2 construct: V-type proton ATPase subunit C, Manduca sexta; source: purified from M. sexta midgut, as part of the V-ATPase holoenzyme
T2 sequence (Q9U5N1 whole entry): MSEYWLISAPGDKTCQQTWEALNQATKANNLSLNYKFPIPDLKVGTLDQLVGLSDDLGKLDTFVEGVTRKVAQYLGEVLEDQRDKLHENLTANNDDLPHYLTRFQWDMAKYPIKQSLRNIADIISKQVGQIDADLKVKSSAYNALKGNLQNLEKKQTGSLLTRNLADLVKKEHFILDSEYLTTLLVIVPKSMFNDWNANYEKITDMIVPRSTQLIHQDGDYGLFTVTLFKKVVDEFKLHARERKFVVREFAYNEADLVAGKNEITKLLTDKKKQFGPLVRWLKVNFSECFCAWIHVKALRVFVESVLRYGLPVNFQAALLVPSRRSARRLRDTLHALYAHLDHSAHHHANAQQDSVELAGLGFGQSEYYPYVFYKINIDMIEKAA

[4] = biological target: T3, Manduca sexta V-ATPase subunit A (Manduca sexta (endogenous in midgut), UniProt P31400 1-617)
T3 construct: V-type proton ATPase catalytic subunit A, Manduca sexta; Three copies in the holoenzyme, (AB)3; source: purified from M. sexta midgut, as part of the V-ATPase holoenzyme
T3 sequence (P31400 whole entry): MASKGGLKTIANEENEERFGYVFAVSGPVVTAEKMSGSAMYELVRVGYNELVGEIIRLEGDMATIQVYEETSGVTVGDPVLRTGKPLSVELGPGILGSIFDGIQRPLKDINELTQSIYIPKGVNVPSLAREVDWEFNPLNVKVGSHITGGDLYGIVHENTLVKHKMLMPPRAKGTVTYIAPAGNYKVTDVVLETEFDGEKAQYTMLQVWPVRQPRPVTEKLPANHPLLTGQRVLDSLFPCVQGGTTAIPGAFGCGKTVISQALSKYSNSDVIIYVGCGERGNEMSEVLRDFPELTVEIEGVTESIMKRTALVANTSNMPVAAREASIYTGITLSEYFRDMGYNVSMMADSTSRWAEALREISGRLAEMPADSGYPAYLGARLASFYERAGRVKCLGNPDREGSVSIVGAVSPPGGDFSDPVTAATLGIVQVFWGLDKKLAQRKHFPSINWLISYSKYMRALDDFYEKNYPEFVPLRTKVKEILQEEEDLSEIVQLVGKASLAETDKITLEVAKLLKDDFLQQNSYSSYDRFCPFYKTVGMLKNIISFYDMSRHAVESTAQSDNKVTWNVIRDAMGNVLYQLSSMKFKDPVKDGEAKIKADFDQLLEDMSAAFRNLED

[5] = biological target: T4, Manduca sexta V-ATPase subunit B (Manduca sexta (endogenous in midgut), UniProt P31401 1-494)
T4 construct: V-type proton ATPase subunit B, Manduca sexta; Three copies in the holoenzyme, (AB)3; source: purified from M. sexta midgut, as part of the V-ATPase holoenzyme
T4 sequence (P31401 whole entry): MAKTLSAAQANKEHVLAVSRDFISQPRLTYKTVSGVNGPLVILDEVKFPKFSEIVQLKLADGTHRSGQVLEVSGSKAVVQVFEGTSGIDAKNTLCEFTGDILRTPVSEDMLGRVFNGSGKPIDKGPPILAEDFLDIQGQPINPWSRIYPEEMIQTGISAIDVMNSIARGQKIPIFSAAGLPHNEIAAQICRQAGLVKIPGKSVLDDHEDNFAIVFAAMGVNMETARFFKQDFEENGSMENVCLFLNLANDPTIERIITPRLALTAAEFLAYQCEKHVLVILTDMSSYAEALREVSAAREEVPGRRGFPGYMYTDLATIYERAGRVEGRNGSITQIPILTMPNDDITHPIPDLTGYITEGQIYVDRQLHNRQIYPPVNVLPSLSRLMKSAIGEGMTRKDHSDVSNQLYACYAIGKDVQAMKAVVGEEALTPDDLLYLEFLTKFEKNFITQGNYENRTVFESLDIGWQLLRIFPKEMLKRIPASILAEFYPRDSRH

binding result [1]	binding result [2]	binding result [3]	binding result [4]	binding result [5]	Binder
binds	binds	binds			B1
	binds	binds			B2
			binds	binds	B3

— publication PMC4353692, “Structure of the Vacuolar H^+-ATPase Rotary Motor Reveals New Mechanistic Insights” (Structure(London, England:1993), 2015)
